IntAct's records for PubMed 31515488

B1: Protein Dr1 (Homo sapiens), Q01658 (parent)
chain: MASSSGNDDDLTIPRAAINKMIKETLPNVRVANDARELVVNCCTEFIHLISSEANEICNKSEKKTISPEHVIQALESLGFGSYISEVKEVLQECKTVALKRRKASSRLENLGIPEEELLRQQQELFAKARQQQAELAQQEWLQMQQAAQQAQLAAASASASNQAGSSQDEEDDDDI
B2: Isoform Long of Autophagy protein 5 (Homo sapiens), Q9H1Y0-1 (parent)
chain: MTDDKDVLRDVWFGRIPTCFTLYQDEITEREAEPYYLLLPRVSYLTLVTDKVKKHFQKVMRQEDISEIWFEYEGTPLKWHYPIGLLFDLLASSSALPWNITVHFKSFPEKDLLHCPSKDAIEAHFMSCMKEADALKHKSQVINEMQKKDHKQLWMGLQNDRFDQFWAINRKLMEYPAEENGFRYIPFRIYQTTTERPFIQKLFRPVAADGQLHTLGDLLKEVCPSAIDPEDGEKKNQVMIHGIEPMLETPLQWLSEHLSYPDNFLHISIIPQPTD
partner: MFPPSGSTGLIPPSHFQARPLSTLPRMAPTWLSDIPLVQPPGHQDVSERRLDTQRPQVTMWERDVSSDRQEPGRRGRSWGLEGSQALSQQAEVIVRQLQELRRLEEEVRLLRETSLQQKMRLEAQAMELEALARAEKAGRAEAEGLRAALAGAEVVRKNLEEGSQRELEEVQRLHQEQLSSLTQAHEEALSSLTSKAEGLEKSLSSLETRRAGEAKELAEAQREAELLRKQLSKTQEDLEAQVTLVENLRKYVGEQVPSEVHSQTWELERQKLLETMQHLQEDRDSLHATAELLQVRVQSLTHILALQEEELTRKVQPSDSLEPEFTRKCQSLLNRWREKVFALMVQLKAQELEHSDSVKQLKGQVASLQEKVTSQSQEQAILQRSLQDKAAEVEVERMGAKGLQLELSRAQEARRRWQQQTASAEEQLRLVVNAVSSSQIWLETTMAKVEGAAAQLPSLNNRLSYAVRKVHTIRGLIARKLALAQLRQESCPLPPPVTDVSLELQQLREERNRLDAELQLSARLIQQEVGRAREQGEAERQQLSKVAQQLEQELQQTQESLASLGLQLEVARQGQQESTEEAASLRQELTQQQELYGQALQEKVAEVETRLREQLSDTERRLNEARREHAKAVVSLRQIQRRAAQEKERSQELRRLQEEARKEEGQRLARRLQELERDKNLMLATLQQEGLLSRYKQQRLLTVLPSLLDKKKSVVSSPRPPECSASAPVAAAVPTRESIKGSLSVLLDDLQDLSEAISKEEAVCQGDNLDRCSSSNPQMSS
B3: Keratin, type I cytoskeletal 18 (Homo sapiens), P05783 (parent)
chain: MSFTTRSTFSTNYRSLGSVQAPSYGARPVSSAASVYAGAGGSGSRISVSRSTSFRGGMGSGGLATGIAGGLAGMGGIQNEKETMQSLNDRLASYLDRVRSLETENRRLESKIREHLEKKGPQVRDWSHYFKIIEDLRAQIFANTVDNARIVLQIDNARLAADDFRVKYETELAMRQSVENDIHGLRKVIDDTNITRLQLETEIEALKEELLFMKKNHEEEVKGLQAQIASSGLTVEVDAPKSQDLAKIMADIRAQYDELARKNREELDKYWSQQIEESTTVVTTQSAEVGAAETTLTELRRTVQSLEIDLDSMRNLKASLENSLREVEARYALQMEQLNGILLHLESELAQTRAEGQRQAQEYEALLNIKVKLEAEIATYRRLLEDGEDFNLGDALDSSNSMQTIQKTTTRRIVDGKVVSETNDTKVLRH
B4: Protein LDOC1 (Homo sapiens), O95751 (parent)
chain: MVDELVLLLHALLMRHRALSIENSQLMEQLRLLVCERASLLRQVRPPSCPVPFPETFNGESSRLPEFIVQTASYMLVNENRFCNDAMKVAFLISLLTGEAEEWVVPYIEMDSPILGDYRAFLDEMKQCFGWDDDEDDDDEEEEDDY
partner: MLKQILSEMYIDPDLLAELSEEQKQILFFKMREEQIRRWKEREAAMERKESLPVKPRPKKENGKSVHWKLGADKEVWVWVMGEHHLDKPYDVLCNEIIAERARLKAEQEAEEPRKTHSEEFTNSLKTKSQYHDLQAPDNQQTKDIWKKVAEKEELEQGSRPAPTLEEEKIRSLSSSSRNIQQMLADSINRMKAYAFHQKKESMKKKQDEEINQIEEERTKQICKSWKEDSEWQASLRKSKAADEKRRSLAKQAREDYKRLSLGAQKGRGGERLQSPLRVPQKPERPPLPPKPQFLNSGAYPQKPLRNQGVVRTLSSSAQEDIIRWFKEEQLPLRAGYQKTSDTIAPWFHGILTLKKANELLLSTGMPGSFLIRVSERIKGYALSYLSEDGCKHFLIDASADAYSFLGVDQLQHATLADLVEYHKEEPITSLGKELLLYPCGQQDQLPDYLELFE
B5: Nuclear pore glycoprotein p62 (Homo sapiens), P37198 (parent)
chain: MSGFNFGGTGAPTGGFTFGTAKTATTTPATGFSFSTSGTGGFNFGAPFQPATSTPSTGLFSLATQTPATQTTGFTFGTATLASGGTGFSLGIGASKLNLSNTAATPAMANPSGFGLGSSNLTNAISSTVTSSQGTAPTGFVFGPSTTSVAPATTSGGFSFTGGSTAQPSGFNIGSAGNSAQPTAPATLPFTPATPAATTAGATQPAAPTPTATITSTGPSLFASIATAPTSSATTGLSLCTPVTTAGAPTAGTQGFSLKAPGAASGTSTTTSTAATATATTTSSSSTTGFALNLKPLAPAGIPSNTAAAVTAPPGPGAAAGAAASSAMTYAQLESLINKWSLELEDQERHFLQQATQVNAWDRTLIENGEKITSLHREVEKVKLDQKRLDQELDFILSQQKELEDLLSPLEELVKEQSGTIYLQHADEEREKTYKLAENIDAQLKRMAQDLKDIIEHLNTSGAPADTSDPLQQICKILNAHMDSLQWIDQNSALLQRKVEEVTKVCEGRRKEQERSFRITFD
B6: Forkhead box protein R2 (Homo sapiens), Q6PJQ5 (parent)
chain: MDLKLKDCEFWYSLHGQVPGLLDWDMRNELFLPCTTDQCSLAEQILAKYRVGVMKPPEMPQKRRPSPDGDGPPCEPNLWMWVDPNILCPLGSQEAPKPSGKEDLTNISPFPQPPQKDEGSNCSEDKVVESLPSSSSEQSPLQKQGIHSPSDFELTEEEAEEPDDNSLQSPEMKCYQSQKLWQINNQEKSWQRPPLNCSHLIALALRNNPHCGLSVQEIYNFTRQHFPFFWTAPDGWKSTIHYNLCFLDSFEKVPDSLKDEDNARPRSCLWKLTKEGHRRFWEETRVLAFAQRERIQECMSQPELLTSLFDL
partner: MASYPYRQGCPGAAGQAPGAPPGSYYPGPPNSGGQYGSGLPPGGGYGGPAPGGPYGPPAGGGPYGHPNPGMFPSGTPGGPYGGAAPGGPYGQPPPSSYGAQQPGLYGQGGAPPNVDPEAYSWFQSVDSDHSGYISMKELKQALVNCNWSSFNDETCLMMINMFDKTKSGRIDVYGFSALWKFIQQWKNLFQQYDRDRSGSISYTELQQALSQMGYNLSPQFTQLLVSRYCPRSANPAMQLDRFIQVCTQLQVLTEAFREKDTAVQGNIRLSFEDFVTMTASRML
B7: Caspase-2 (Homo sapiens), P42575 (parent)
chain: MAAPSAGSWSTFQHKELMAADRGRRILGVCGMHPHHQETLKKNRVVLAKQLLLSELLEHLLEKDIITLEMRELIQAKVGSFSQNVELLNLLPKRGPQAFDAFCEALRETKQGHLEDMLLTTLSGLQHVLPPLSCDYDLSLPFPVCESCPLYKKLRLSTDTVEHSLDNKDGPVCLQVKPCTPEFYQTHFQLAYRLQSRPRGLALVLSNVHFTGEKELEFRSGGDVDHSTLVTLFKLLGYDVHVLCDQTAQEMQEKLQNFAQLPAHRVTDSCIVALLSHGVEGAIYGVDGKLLQLQEVFQLFDNANCPSLQNKPKMFFIQACRGDETDRGVDQQDGKNHAGSPGCEESDAGKEKLPKMRLPTRSDMICGYACLKGTAAMRNTKRGSWYIEALAQVFSERACDMHVADMLVKVNALIKDREGYAPGTEFHRCKEMSEYCSTLCRHLYLFPGHPPT
B8: Cyclic AMP-responsive element-binding protein 3-like protein 1 (Homo sapiens), Q96BA8 (parent)
chain: MDAVLEPFPADRLFPGSSFLDLGDLNESDFLNNAHFPEHLDHFTENMEDFSNDLFSSFFDDPVLDEKSPLLDMELDSPTPGIQAEHSYSLSGDSAPQSPLVPIKMEDTTQDAEHGAWALGHKLCSIMVKQEQSPELPVDPLAAPSAMAAAAAMATTPLLGLSPLSRLPIPHQAPGEMTQLPVIKAEPLEVNQFLKVTPEDLVQMPPTPPSSHGSDSDGSQSPRSLPPSSPVRPMARSSTAISTSPLLTAPHKLQGTSGPLLLTEEEKRTLIAEGYPIPTKLPLTKAEEKALKRVRRKIKNKISAQESRRKKKEYVECLEKKVETFTSENNELWKKVETLENANRTLLQQLQKLQTLVTNKISRPYKMAATQTGTCLMVAALCFVLVLGSLVPCLPEFSSGSQTVKEDPLAADGVYTASQMPSRSLLFYDDGAGLWEDGRSTLLPMEPPDGWEINPGGPAEQRPRDHLQHDHLDSTHETTKYLSEAWPKDGGNGTSPDFSHSKEWFHDRDLGPNTTIKLS
B9: UV excision repair protein RAD23 homolog B (Homo sapiens), P54727 (parent)
chain: MQVTLKTLQQQTFKIDIDPEETVKALKEKIESEKGKDAFPVAGQKLIYAGKILNDDTALKEYKIDEKNFVVVMVTKPKAVSTPAPATTQQSAPASTTAVTSSTTTTVAQAPTPVPALAPTSTPASITPASATASSEPAPASAAKQEKPAEKPAETPVATSPTATDSTSGDSSRSNLFEDATSALVTGQSYENMVTEIMSMGYEREQVIAALRASFNNPDRAVEYLLMGIPGDRESQAVVDPPQAASTGAPQSSAVAAAAATTTATTTTTSSGGHPLEFLRNQPQFQQMRQIIQQNPSLLPALLQQIGRENPQLLQQISQHQEHFIQMLNEPVQEAGGQGGGGGGGSGGIAEAGSGHMNYIQVTPQEKEAIERLKALGFPEGLVIQAYFACEKNENLAANFLLQQNFDED
partner: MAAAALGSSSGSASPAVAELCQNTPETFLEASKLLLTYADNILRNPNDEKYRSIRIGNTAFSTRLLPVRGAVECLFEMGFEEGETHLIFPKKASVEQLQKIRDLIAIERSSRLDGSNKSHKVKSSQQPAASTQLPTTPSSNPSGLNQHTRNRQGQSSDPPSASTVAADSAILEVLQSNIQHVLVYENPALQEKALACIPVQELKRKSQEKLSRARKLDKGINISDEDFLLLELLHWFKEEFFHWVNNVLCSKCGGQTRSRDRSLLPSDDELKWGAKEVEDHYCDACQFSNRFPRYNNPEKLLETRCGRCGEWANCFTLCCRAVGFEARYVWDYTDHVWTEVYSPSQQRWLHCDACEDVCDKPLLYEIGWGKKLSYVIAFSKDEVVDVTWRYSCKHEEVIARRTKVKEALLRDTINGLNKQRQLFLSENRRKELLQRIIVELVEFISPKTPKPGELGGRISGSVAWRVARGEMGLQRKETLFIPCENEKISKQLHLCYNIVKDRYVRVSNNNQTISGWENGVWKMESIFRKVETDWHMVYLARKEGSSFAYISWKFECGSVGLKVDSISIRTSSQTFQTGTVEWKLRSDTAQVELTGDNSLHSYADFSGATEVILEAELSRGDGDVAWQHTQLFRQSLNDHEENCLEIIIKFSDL

Variants of: B1
Conditions: with dpoe3_human POLE3, Q9NRF9
Sequence of dpoe3_human POLE3, Q9NRF9 (Q9NRF9 whole entry): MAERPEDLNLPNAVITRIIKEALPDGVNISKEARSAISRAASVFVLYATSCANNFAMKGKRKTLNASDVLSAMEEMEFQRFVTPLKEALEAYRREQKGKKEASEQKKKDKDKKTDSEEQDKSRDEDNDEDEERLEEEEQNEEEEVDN

Row | effect of a mutation on the interaction | Variant
1 | with no effect | E171D

Variants of: B1
Conditions: with tbp_human TBP

Row | effect of a mutation on the interaction | Variant
2 | with no effect | E171D

Variants of: B2
Conditions: with cchcr_human CCHCR1, Q8TD31

Row | Variant | effect of a mutation on the interaction
3 | K58M | with no effect

Variants of: B3
Conditions: with KRT15, P19012
Sequence of KRT15, P19012 (P19012 whole entry): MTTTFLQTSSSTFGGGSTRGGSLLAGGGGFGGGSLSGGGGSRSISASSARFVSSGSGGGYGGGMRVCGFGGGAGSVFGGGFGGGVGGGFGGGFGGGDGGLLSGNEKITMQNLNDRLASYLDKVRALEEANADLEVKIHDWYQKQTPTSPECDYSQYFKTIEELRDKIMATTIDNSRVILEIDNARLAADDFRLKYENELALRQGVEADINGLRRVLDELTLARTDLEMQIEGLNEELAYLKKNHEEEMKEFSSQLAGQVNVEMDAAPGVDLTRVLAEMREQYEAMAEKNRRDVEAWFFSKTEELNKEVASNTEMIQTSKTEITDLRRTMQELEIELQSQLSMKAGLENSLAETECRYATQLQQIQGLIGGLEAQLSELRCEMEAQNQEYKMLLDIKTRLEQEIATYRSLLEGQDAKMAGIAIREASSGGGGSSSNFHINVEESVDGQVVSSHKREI

Row | effect of a mutation on the interaction | Variant
4 | with no effect | I150V

Variants of: B4
Conditions: with sh24a_human SH2D4A

Row | effect of a mutation on the interaction | Variant
5 | disrupting interaction strength | L12H

Variants of: B5
Conditions: with nup58_human NUP58, Q9BVL2
Sequence of nup58_human NUP58, Q9BVL2 (Q9BVL2 whole entry): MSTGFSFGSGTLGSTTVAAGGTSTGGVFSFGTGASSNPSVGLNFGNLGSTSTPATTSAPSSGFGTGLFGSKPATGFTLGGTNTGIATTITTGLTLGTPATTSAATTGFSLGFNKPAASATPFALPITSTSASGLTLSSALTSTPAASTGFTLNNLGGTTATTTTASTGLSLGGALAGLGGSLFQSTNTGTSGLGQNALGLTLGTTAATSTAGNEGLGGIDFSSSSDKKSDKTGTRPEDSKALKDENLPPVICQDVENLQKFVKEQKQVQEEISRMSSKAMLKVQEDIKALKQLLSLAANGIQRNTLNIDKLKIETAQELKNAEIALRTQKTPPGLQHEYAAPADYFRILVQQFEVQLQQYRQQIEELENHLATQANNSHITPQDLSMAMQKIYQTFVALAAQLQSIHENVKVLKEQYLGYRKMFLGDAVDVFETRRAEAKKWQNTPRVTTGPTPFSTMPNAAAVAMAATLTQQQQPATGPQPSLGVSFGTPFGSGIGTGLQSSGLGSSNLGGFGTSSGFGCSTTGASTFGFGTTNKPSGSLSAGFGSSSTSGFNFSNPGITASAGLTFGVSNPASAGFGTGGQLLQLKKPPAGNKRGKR

Row | effect of a mutation on the interaction | Variant
6 | with no effect | A279T

Variants of: B5
Conditions: with hsf2_human HSF2, Q03933
Sequence of hsf2_human HSF2, Q03933 (Q03933 whole entry): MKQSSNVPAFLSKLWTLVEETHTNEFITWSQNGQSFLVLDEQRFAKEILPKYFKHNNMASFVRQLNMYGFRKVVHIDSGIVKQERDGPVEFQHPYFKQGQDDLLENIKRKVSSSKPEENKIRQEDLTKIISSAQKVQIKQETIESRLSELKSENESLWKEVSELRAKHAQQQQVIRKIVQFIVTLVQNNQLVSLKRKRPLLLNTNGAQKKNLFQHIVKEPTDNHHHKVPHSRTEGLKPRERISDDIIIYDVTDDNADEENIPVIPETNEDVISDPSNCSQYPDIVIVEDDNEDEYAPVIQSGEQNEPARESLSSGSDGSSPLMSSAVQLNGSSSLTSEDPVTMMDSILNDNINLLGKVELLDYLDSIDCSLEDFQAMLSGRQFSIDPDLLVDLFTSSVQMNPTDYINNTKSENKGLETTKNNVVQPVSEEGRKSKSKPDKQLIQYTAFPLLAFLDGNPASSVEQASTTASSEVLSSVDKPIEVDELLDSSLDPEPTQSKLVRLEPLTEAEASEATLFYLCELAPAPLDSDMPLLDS

Row | effect of a mutation on the interaction | Variant
7 | with no effect | A279T

Variants of: B5
Conditions: with ntf2_human NUTF2, P61970
Sequence of ntf2_human NUTF2, P61970 (P61970 whole entry): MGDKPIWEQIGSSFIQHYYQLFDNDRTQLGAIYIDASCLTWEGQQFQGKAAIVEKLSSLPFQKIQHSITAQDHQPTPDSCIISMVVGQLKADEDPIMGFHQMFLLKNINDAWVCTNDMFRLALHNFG

Row | effect of a mutation on the interaction | Variant
8 | with no effect | A279T

Variants of: B5
Conditions: with abi2_human ABI2, Q9NYB9
Sequence of abi2_human ABI2, Q9NYB9 (Q9NYB9 whole entry): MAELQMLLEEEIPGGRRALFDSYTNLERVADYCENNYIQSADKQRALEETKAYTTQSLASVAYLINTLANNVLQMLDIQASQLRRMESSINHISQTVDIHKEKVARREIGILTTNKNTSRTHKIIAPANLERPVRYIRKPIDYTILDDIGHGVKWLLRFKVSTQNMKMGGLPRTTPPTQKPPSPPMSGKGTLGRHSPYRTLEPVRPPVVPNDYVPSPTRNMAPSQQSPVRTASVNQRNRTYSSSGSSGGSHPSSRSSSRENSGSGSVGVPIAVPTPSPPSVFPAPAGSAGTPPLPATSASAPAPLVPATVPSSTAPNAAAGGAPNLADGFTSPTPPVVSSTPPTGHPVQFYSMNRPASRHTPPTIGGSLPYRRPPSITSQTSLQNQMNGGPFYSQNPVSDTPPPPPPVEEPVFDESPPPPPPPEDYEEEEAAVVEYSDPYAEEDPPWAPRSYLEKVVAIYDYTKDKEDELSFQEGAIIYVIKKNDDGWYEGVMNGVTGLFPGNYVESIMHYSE

Row | effect of a mutation on the interaction | Variant
9 | with no effect | A279T

Variants of: B6
Conditions: with pef1_human PEF1, Q9UBV8

Row | effect of a mutation on the interaction | Variant
10 | disrupting interaction strength | I218F
11 | with no effect | V286A

Variants of: B7
Conditions: with cradd_human CRADD

Row | Variant | effect of a mutation on the interaction
12 | R155H | with no effect
13 | V29E | with no effect
14 | R265G | with no effect

Second part, the variant after the results:

Row | effect of a mutation on the interaction | Variant
15 | with no effect | G349S
16 | with no effect | E388K

Variants of: B8
Conditions: with gpr25_human GPR25, O00155
Sequence of gpr25_human GPR25, O00155 (O00155 whole entry): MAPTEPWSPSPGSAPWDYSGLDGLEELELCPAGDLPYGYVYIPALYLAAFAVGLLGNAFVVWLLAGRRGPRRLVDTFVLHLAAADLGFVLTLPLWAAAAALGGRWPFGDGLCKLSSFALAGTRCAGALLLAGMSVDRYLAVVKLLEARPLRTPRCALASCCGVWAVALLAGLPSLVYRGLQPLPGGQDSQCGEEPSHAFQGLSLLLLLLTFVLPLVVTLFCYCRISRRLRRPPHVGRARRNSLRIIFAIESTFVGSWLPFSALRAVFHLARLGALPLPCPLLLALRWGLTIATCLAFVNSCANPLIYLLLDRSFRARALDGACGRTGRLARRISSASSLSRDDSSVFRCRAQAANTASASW

Row | effect of a mutation on the interaction | Variant
17 | with no effect | A152T
18 | with no effect | I516S

Variants of: B8
Conditions: with tm147_human TMEM147, Q9BVK8
Sequence of tm147_human TMEM147, Q9BVK8 (Q9BVK8 whole entry): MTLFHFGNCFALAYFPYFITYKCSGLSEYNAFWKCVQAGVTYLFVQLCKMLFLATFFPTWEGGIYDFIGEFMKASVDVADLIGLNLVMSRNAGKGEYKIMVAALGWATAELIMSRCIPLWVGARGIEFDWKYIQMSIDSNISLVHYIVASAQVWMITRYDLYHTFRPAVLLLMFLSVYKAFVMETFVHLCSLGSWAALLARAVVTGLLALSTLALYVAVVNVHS

Row | effect of a mutation on the interaction | Variant
19 | with no effect | A152T
20 | with no effect | I516S

Variants of: B9
Conditions: with ngly1_human NGLY1, Q96IV0

Row | effect of a mutation on the interaction | Variant
21 | with no effect | P119H
22 | with no effect | T269R
